Test results published in patent publication US20050118719A1.

Target: temperature sensitive C1 repressor polypeptide from thermoinducible bacteriophage P1Cm carrying the c1.100 mutation (bacteriophage P1)
Experiment: cell-based or functional assay

Coi polypeptide (C1 inactivator polypeptide) from bacteriophage P1
Basal activity (31° C.), Miller units; β-Gal from Op72lacZcoi reporter in K. pneumoniae: 36.4 Miller units
Fold-induction; β-Gal from Op72lacZcoi reporter in K. pneumoniae: 19 fold
Induced activity (42° C.), Miller units; β-Gal from Op72lacZcoi reporter in K. pneumoniae: 698 Miller units
